In the experiment the target is T1, MLO-Y4 cell surface proteins (Mus musculus, UniProt Q9CXD6).
T1 construct: endogenous in cells; host or cells: MLO-Y4
T1 sequence (Q9CXD6 1-340): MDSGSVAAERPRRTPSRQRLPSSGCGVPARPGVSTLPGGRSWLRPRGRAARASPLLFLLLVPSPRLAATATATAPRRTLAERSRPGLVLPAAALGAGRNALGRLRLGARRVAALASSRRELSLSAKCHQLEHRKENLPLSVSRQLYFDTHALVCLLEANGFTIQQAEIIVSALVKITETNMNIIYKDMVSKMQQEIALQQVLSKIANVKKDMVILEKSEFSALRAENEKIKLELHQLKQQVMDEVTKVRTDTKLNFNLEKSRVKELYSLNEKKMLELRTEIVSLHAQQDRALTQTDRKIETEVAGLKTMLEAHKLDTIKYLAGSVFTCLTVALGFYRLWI
The experiment can be described thus: Crosslinking/co-immunoprecipitation/mass spectrometry (TMT quantitative proteomics) to identify irisin receptors. The experiment is classed as binding. The note with it: co-precipitated protein Mcur1 (MCUR1_MOUSE). A digest of the protocol: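 Relative protein abundance came from 6-plex TMT MS3 quantitation on an Orbitrap Fusion Lumos, after in-gel trypsin digestion of Coomassie-stained SDS-PAGE lanes. Input was a Ni-NTA pulldown (250 mM imidazole elution) of lysates from murine MLO-Y4 cells. These cells were treated on ice with His-tagged irisin or adipsin (10 nM, 20 min) in serum-free medium, then crosslinked with 1.5 mM DTSSP for 30 min.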

For adipsin, the TMT signal-to-noise ratio is listed as 1631.69.

The values above are taken from US20210063414A1, “METHODS FOR PREVENTING AND/OR TREATING BONE LOSS CONDITIONS BY MODULATING IRISIN” (Dana-Farber Cancer Institute, Inc., priority 2018, published 2021).
